The results in this text go back to patent US20240226274A1.

Where “and” joins values, the source holds several entries; their conditions need not be identical. Equal values may be shown once.

Test [1] has as its target hMPV F design M-104 (human metapneumovirus) (UniProt Q6WB98). Nature of the test: BLI; antibody on Protein A sensor; F protein heated 1 h at 55 C. On the technique in general: BLI is a label-free optical method that tracks binding on a fibre tip over time.
In test [2] the target is hMPV F 115-BV (human metapneumovirus) (UniProt Q6WB98). Nature of the test: BLI; antibody on Protein A sensor, F protein in solution; RT, not heated.
Test [3] deals with hMPV F design M-104 (human metapneumovirus) (UniProt Q6WB98). The description is as above.
Test [4] has as its target RSV F DS-Cav1 (respiratory syncytial virus). Nature of the test: BLI; antibody on Protein A sensor; F protein heated 1 h at 55 C.
In test [5] the target is RSV F design R-1b (respiratory syncytial virus (A2 strain)). The description is as above.
Test [6] deals with RSV F DS-Cav1 (respiratory syncytial virus). Nature of the test: BLI; antibody on Protein A sensor, F protein in solution; RT, not heated.
In test [7] the target is RSV F design R-1b (respiratory syncytial virus (A2 strain)). The description is as above.
For test [8], the target named is postfusion RSV A2 F (respiratory syncytial virus A2) (UniProt P03420). Nature of the test: BLI; antibody on Protein A sensor; F protein heated 1 h at 60 C.
Test [9] has the same target. Nature of the test: BLI; antibody on Protein A sensor, F protein in solution; RT, not heated.
Test [10] has as its target RSV F DS-Cav1 (respiratory syncytial virus). Nature of the test: BLI; antibody on Protein A sensor; F protein heated 1 h at 60 C.

In the case of antibody MPE8, the kon (usually a measure of how fast the partners come together) in test [1] was 36600 M⁻¹ s⁻¹ and 21700 M⁻¹ s⁻¹ and 25100 M⁻¹ s⁻¹; in test [2], 14500 M⁻¹ s⁻¹ and 15200 M⁻¹ s⁻¹ and 10900 M⁻¹ s⁻¹; in [3], 40100 M⁻¹ s⁻¹ and 32400 M⁻¹ s⁻¹ and 42100 M⁻¹ s⁻¹.
On to antibody AM14, for which the kon was 50300 M⁻¹ s⁻¹ and 58500 M⁻¹ s⁻¹ and 50100 M⁻¹ s⁻¹ in test [4]; 88700 M⁻¹ s⁻¹ and 86300 M⁻¹ s⁻¹ and 99100 M⁻¹ s⁻¹ in test [5]; 161000 M⁻¹ s⁻¹ and 204000 M⁻¹ s⁻¹ and 181000 M⁻¹ s⁻¹ in test [6]; 203000 M⁻¹ s⁻¹ and 227000 M⁻¹ s⁻¹ and 219000 M⁻¹ s⁻¹ in test [7]. The Kd (in general, the free concentration of one partner at which half of the binding sites on the other are occupied at equilibrium, for simple one-to-one binding) in test [5] was 0.134 nM and 0.133 nM; in test [7] it was 0.497 nM and 0.489 nM and 0.568 nM. The koff (usually the first-order rate constant of dissociation) in [5] is 1.15e-05 s⁻¹ and 1.31e-05 s⁻¹; in test [7], 0.000111 s⁻¹ and 0.000124 s⁻¹ and 0.000101 s⁻¹.
Consider antibody 131-2A, for which the kon in [8] was 522000 M⁻¹ s⁻¹ and 482000 M⁻¹ s⁻¹ and 452000 M⁻¹ s⁻¹; in test [6], 8290 M⁻¹ s⁻¹ and 9190 M⁻¹ s⁻¹ and 17600 M⁻¹ s⁻¹; in test [7] it was 47900 M⁻¹ s⁻¹ and 47500 M⁻¹ s⁻¹ and 33700 M⁻¹ s⁻¹; in test [9] it was 400000 M⁻¹ s⁻¹ and 409000 M⁻¹ s⁻¹ and 485000 M⁻¹ s⁻¹. Further, the Kd is 133 nM and 34.4 nM and 17.4 nM in test [6]; 6.47 nM and 7.43 nM and 11.9 nM in test [7]. Also, the koff in [7] was 0.00031 s⁻¹ and 0.000353 s⁻¹ and 0.0004 s⁻¹.
With antibody D25, the kon in [10] was 115000 M⁻¹ s⁻¹ and 135000 M⁻¹ s⁻¹ and 132000 M⁻¹ s⁻¹; in [4], 213000 M⁻¹ s⁻¹ and 160000 M⁻¹ s⁻¹ and 142000 M⁻¹ s⁻¹; in [5], 156000 M⁻¹ s⁻¹ and 120000 M⁻¹ s⁻¹ and 121000 M⁻¹ s⁻¹; in test [6] it was 121000 M⁻¹ s⁻¹ and 187000 M⁻¹ s⁻¹ and 149000 M⁻¹ s⁻¹; in test [7], 179000 M⁻¹ s⁻¹ and 144000 M⁻¹ s⁻¹ and 151000 M⁻¹ s⁻¹.
